Reference: patent US20210380651A1 (SIOLTA THERAPEUTICS, published 2021)

Molecular target: T1, IgE-Fc protein having the amino acid sequence set forth in SEQ ID NO: 5 (murine, UniProt P06336 91-421, glycosylated (fully glycosylated IgE-Fc))
T1 construct: Made in HEK293T cells; also called murine IgE-Fc; single domain IgE-Fc; not shown: TEV-His tag (detected with anti-His antibodies)
T1 sequence: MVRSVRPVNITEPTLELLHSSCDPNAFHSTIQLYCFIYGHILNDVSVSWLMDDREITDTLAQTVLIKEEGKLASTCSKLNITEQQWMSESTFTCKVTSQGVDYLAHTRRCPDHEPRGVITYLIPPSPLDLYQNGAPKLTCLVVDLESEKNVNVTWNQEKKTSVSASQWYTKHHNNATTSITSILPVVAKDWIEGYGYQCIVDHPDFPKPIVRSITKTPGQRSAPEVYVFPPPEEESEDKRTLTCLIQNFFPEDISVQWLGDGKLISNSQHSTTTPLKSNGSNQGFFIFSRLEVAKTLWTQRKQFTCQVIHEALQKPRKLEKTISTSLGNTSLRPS
Assay: flow cytometry on RBL-2H3 cells, 30 min, APC anti-His detection
Experimental: Cells of the histamine-releasing rat cell line RBL-2H3 and human peripheral blood mononuclear cells (PBMCs) were treated with the IgE-Fc protein (purified) having the amino acid sequence set forth in SEQ ID NO: 5 and the IgG-Fc-IgE-Fc fusion protein (unpurified, obtained from cell culture supernatant) having the amino acid sequence set forth in SEQ ID NO: 12 for 30 min. Cells were then thoroughly washed and stained with allophycocyanin (APC) conjugated anti-His antibodies and subsequently analyzed by flow cytometry. Anti-His antibodies detected Fc proteins that were bound to the cell surface due to their specific interaction with Fc epsilon Receptor I (FcεRI) and Fc gamma Receptor IIB (FcγRIIB), respectively. IgG-Fc-IgE-Fc proteins were able to bind to both the rat basophil cell line RBL-2H3 as well as to human PBMCs (comprised about 50-70% […], 10-25% T cells, and 20-30% of cells expressing FcgRIIB), even in very low concentrations in which the IgG-Fc-IgE-Fc fusion protein was present (approximately 0.05 mg/mL) in cell culture supernatants compared to purified and highly concentrated IgE-Fc proteins (approximately 1 mg/mL).

binding result: binds
B1: Fc epsilon Receptor I (FcεRI) on cells of the rat basophil cell line RBL-2H3 (receptor, UniProt P12371 24-245, looked up)
chain: ATQKSVVSLDPPWIRILTGDKVTLICNGNNSSQMNSTKWIHNDSISNVKSSHWVIVSATIQDSGKYICQKQGFYKSKPVYLNVMQEWLLLQSSADVVLDNGSFDIRCRSWKKWKVHKVIYYKDDIAFKYSYDSNNISIRKATFNDSGSYHCTGYLNKVECKSDKFSIAVVKDYTIEYRWLQLIFPSLAVILFAVDTGLWFSTHKQFESILKIQKTGKGKKKG
notes: whole, on cells; the receptor on cells also has beta and gamma chains; also called FceRI; Fc epsilon receptors
